In patent US20240076389A1 (NATIONAL RESEARCH COUNCIL OF CANADA, published 2024):

Legend:
[1] = target: T1, recombinant human AXL extracellular domain, C-terminally His8-tagged (rhAXL-ECD) (human, UniProt P30530 26-451); experiment: ELISA on coated AXL ECD (100 ng/well), VHH-Fc, HRP-protein A
T1 construct: Made in CHO cells; also called (rh)AXL-ECD His8; human AXL ECD
T1 sequence: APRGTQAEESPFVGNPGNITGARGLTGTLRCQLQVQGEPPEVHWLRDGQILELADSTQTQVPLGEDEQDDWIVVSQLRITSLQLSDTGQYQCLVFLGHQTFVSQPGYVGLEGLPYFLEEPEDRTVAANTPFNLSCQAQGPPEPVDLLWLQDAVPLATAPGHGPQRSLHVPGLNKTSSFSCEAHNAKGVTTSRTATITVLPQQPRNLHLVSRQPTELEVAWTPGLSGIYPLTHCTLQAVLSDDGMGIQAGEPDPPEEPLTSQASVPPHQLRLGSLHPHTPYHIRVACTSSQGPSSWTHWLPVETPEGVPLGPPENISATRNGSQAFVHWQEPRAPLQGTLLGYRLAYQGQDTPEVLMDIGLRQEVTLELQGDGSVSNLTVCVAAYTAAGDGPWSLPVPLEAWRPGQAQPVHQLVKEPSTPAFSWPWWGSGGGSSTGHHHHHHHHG
Protocol: (§1) ELISA. ELISAs against human, cyno and mouse AXL ECDs were conducted by immobilizing 100 ng of each protein in wells of Nunc MaxiSorp microplates overnight. Human AXL (aa 1-451) and cyno AXL (aa 1-449) were produced recombinantly as described in Example 10. Mouse AXL was purchased from Sino (cat. 51026-M08H). The next day, plates were blocked with 5% (w/v) dried milk in PBS. Murine mAbs (either hybridoma- or recombinantly-produced) or VHH-Fcs were diluted in PBS containing 1% BSA and 0.1% Tween-20 and added to wells for 2 hours at room temperature. Wells were washed 5× with PBS containing 0.1% Tween-20, then HRP-labeled protein A (diluted 1:1000 in PBS containing 1% BSA and 0.1% Tween™-20) was added to wells for 1 hour at room temperature. Wells were washed again 5× with PBS/0.1% Tween-20 and developed using TMB substrate. Absorbance was measured at 450 nm. As a positive control for mouse AXL binding, a commercial anti-mouse AXL mAb (clone 175128, R&D Systems MAB8541, rat IgG2A) was used and detected with donkey […] secondary antibody.

[2] = target: T2, human AXL expressed on the cell surface of tumor cell lines (human, UniProt P30530 26-894); experiment: FACS on NCI-H292 cells, apparent Kd
T2 construct: whole, on cells; also called cell surface-expressed AXL; cell-based AXL
T2 sequence (looked up): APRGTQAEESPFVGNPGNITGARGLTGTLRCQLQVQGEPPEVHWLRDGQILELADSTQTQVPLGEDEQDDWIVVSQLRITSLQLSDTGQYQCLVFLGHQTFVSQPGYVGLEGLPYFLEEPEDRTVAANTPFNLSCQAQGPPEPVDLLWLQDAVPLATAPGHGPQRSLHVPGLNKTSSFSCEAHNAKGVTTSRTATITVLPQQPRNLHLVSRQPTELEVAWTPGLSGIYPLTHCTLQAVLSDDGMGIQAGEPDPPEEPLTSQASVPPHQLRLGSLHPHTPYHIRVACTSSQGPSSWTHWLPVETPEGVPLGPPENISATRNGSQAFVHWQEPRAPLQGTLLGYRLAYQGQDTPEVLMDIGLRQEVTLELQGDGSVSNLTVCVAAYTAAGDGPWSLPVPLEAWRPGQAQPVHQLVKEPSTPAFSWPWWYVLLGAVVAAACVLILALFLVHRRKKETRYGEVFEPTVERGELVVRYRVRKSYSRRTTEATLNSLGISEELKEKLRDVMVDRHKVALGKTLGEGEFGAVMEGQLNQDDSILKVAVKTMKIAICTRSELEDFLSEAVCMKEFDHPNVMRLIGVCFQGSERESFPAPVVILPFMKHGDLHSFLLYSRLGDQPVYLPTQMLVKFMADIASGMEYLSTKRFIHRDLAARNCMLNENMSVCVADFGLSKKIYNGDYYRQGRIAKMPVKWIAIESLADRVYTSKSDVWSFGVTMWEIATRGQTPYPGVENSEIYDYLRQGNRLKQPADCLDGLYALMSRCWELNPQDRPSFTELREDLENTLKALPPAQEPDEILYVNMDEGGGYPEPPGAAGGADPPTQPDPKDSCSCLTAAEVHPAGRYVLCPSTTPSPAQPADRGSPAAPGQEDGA
Protocol: FACS binding assay. Adherent cells were dissociated with non-enzymatic Sigma Cell Dissociation Solution (Cat. No. C5789). Cells suspensions were added to polypropylene, V-bottom 96-well plates and incubated for 2 hours on ice with primary antibodies at concentrations ranging from 100 nM to 0.001 nM or at a single dose of 100 nM (for the non-specific control). After incubation and washes, cells were incubated with fluorescently labeled secondary antibody (Alexa Fluor® 488 anti-human IgG from Jackson Cat. No 709-546-098) for 1 hour on ice, then washed. Cell viability was determined using Fixable viability dye 450 (20 min on ice). Stained cells were fixed in 1% formaldehyde at 4° C. and stored at 4° C. until acquisition which was performed the next day.
Binding of recombinant chimeric Abs to three cell lines was assessed by FACS as described above. The apparent Bmax and Kd determination is shown below in Table 14.

[3] = target: T1, recombinant human AXL extracellular …; experiment: ELISA on coated AXL ECD (100 ng/well), HRP-protein A
Protocol: as §1

[4] = target: T1, recombinant human AXL extracellular …; experiment: SPR Biacore T200, mAb captured on anti-Fc, AXL ECD flowed, single-cycle kinetics
Protocol: (§2) Surface plasmon resonance. For murine mAbs, binding to human and cynomolgus AXL ECD was assessed using a Biacore T200 instrument. Briefly, either anti-mouse or anti-human Fc antibody was immobilized on a research-grade CM5 series S sensor chip using amine coupling in acetate buffer. Murine or recombinant chimeric murine-human mAbs (mouse VH/VL; human constant regions) were captured, then recombinant human or cyno AXL ECD was flowed over the surface at different concentration ranges (0.1-500 nM) depending on the antibody. The running buffer was PBS/Tween-20 and the flow rate 100 uL/min. All binding studies were performed at 25° C. Surfaces were regenerated using 10 mM glycine, pH 1.5.

[5] = target: T3, recombinant cynomolgus AXL extracellular domain (cynomolgus); experiment: as above
T3 construct: range 1-449; also called Cyno AXL; cyno AXL ECD
Protocol: as §2

B1: NRC-sdAb001-Fc (VHH-human IgG1 Fc fusion) (Fc fusion)
chain: QVKLEESGGGLVQAGGSLRLSCTASASISSFDIMGWYRQAPGKQRELVAAITTLDIANYRDSVKGRFTISRDNAKNTVYLQMDSLKPEDTARYHCAAFQSDQNYWGQGTQVTVSS
notes: VHH fused N-terminally to human IgG1 Fc, made in HEK293 cells; also called NRC-sdAb0001-Fc; NRC-sdAb001-hIgG1; not shown: human IgG1 Fc
EC50 [1]: 1 nM

B2: hFC-F107-10G1 (antibody, human IgG1, kappa, V domains shown)
VH: EVNLVESGGGVVKPGASLKLSCEASGFTFSNYGMSWVRQTSDKRLEWVASISGGGGRTYYLDNVKGRFIISRENAKNTLYLQMSSLKSEDTALFYCARGARASYFAMDYWGQGSSVTVSS
VL: VIVMTQSHKFMSTSVGDRVSITCKASQDVTTAVAWYQQKPGQSPKLLIYWASTRHTGVPDRFTGSGSGTDYSLTISNVQTEDLAFYYCQQHFTTPLTFGAGTKLELKR
notes: Chimeric mAb, human IgG1 / human kappa constant regions; also called mAb F107-10G1
Kd [2]: 0.0708 nM | EC50 [3]: 2 nM | Kd [4]: 0.5 nM | kon [4]: 1.1e+06 M⁻¹ s⁻¹ | Kd [5]: 0.5 nM | koff [5]: 0.00043 s⁻¹ | kon [5]: 820000 M⁻¹ s⁻¹
